Reference: the supplement of paper PMC5998384

Experiments:
HeLa Kyoto [1] = test: solubility in G1/S (NP-40 vs SDS abundance) (log2 ratio); higher = more soluble; details: cell cycle stage: G1/S
HeLa Kyoto [2] = test: melting temperature (median over replicates), in situ; higher = more thermally stable
HeLa Kyoto [3] = test: solubility change mitosis vs G1/S (difference of NP-40 vs SDS log2 ratios) (log2 ratio difference); higher = more soluble in mitosis
HeLa Kyoto [4] = test: thermal stability score vs G1/S (z-score of summed log2 fold changes over temperatures); higher = more thermally stable than in G1/S
[5] = cell cycle stage: early G1 (4.5 h after nocodazole release)
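Throughout, for melting temperature (median over replicates), in situ: HeLa Kyoto cells synchronized by double thymidine or nocodazole block, proteins quantified by TMT10plex mass spectrometry, three independent biological replicates.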
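Throughout, for solubility change mitosis vs G1/S (difference of NP-40 vs SDS log2 ratios): synchronized HeLa Kyoto cells (double thymidine block for G1/S, nocodazole release for mitosis), protein amounts in NP-40 versus SDS lysates quantified by mass spectrometry, three biological replicates.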
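Throughout, for solubility in G1/S (NP-40 vs SDS abundance): HeLa Kyoto cells arrested at G1/S by double thymidine block, proteins quantified by TMT10plex mass spectrometry in mild NP-40 versus SDS extracts, three biological replicates.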
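Throughout, for thermal stability score vs G1/S (z-score of summed log2 fold changes over temperatures): synchronized HeLa Kyoto cells, proteins quantified by TMT10plex mass spectrometry, three biological replicates, mitosis taken 0.5 h after nocodazole release, G1/S directly after double thymidine block.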

MWRSCLRLRDGGRRLLNRPAGGPSASMSPGPTIPSPARAYAPPTERKRFYQNVSITQGEGGFEINLDHRKLKTPQAKLFTVPSEALAIAVATEWDSQQDTIKYYTMHLTTLCNTSLDNPTQRNKDQLIRAAVKFLDTDTICYRVEEPETLVELQRNEWDPIIEWAEKRYGVEISSSTSIMGPSIPAKTREVLVSHLASYNTWALQGIEFVAAQLKSMVLTLGLIDLRLTVEQAVLLSRLEEEYQIQKWGNIEWAHDYELQELRARTAAGTLFIHLCSESTTVKHKLLKE [ATPAF2]
solubility in G1/S (log2) (HeLa Kyoto [1]): 0.104 | melting temperature (HeLa Kyoto [2]; cell cycle stage: G1/S): 56.8 °C | melting temperature (HeLa Kyoto [2]; cell cycle stage: mitosis): 56 °C | solubility change mitosis (log2) (HeLa Kyoto [3]): -0.295 | thermal stability score (HeLa Kyoto [4]; [5]): -0.051 | thermal stability score (HeLa Kyoto [4]; cell cycle stage: mitosis): -1.43

MFHLRTCAAKLRPLTASQTVKTFSQNRPAAARTFQQIRCYSAPVAAEPFLSGTSSNYVEEMYCAWLENPKSVHKSWDIFFRNTNAGAPPGTAYQSPLPLSRGSLAAVAHAQSLVEAQPNVDKLVEDHLAVQSLIRAYQIRGHHVAQLDPLGILDADLDSSVPADIISSTDKLGFYGLDESDLDKVFHLPTTTFIGGQESALPLREIIRRLEMAYCQHIGVEFMFINDLEQCQWIRQKFETPGIMQFTNEEKRTLLARLVRSTRFEEFLQRKWSSEKRFGLEGCEVLIPALKTIIDKSSENGVDYVIMGMPHRGRLNVLANVIRKELEQIFCQFDSKLEAADEGSGDVKYHLGMYHRRINRVTDRNITLSLVANPSHLEAADPVVMGKTKAEQFYCGDTEGKKVMSILLHGDAAFAGQGIVYETFHLSDLPSYTTHGTVHVVVNNQIGFTTDPRMARSSPYPTDVARVVNAPIFHVNSDDPEAVMYVCKVAAEWRSTFHKDVVVDLVCYRRNGHNEMDEPMFTQPLMYKQIRKQKPVLQKYAELLVSQGVVNQPEYEEEISKYDKICEEAFARSKDEKILHIKHWLDSPWPGFFTLDGQPRSMSCPSTGLTEDILTHIGNVASSVPVENFTIHGGLSRILKTRGEMVKNRTVDWALAEYMAFGSLLKEGIHIRLSGQDVERGTFSHRHHVLHDQNVDKRTCIPMNHLWPNQAPYTVCNSSLSEYGVLGFELGFAMASPNALVLWEAQFGDFHNTAQCIIDQFICPGQAKWVRQNGIVLLLPHGMEGMGPEHSSARPERFLQMCNDDPDVLPDLKEANFDINQLYDCNWVVVNCSTPGNFFHVLRRQILLPFRKPLIIFTPKSLLRHPEARSSFDEMLPGTHFQRVIPEDGPAAQNPENVKRLLFCTGKVYYDLTRERKARDMVGQVAITRIEQLSPFPFDLLLKEVQKYPNAELAWCQEEHKNQGYYDYVKPRLRTTISRAKPVWYAGRDPAAAPATGNKKTHLTELQRLLDTAFDLDVFKNFS [OGDH]
solubility in G1/S (log2) (HeLa Kyoto [1]): 0.0621 | melting temperature (HeLa Kyoto [2]; cell cycle stage: G1/S): 52 °C | melting temperature (HeLa Kyoto [2]; cell cycle stage: mitosis): 51.7 °C | solubility change mitosis (log2) (HeLa Kyoto [3]): -0.178 | thermal stability score (HeLa Kyoto [4]; [5]): -0.752 | thermal stability score (HeLa Kyoto [4]; cell cycle stage: mitosis): -1.63

MAAAAGAAAAAAAEGEAPAEMGALLLEKETRGATERVHGSLGDTPRSEETLPKATPDSLEPAGPSSPASVTVTVGDEGADTPVGATPLIGDESENLEGDGDLRGGRILLGHATKSFPSSPSKGGSCPSRAKMSMTGAGKSPPSVQSLAMRLLSMPGAQGAAAAGSEPPPATTSPEGQPKVHRARKTMSKPGNGQPPVPEKRPPEIQHFRMSDDVHSLGKVTSDLAKRRKLNSGGGLSEELGSARRSGEVTLTKGDPGSLEEWETVVGDDFSLYYDSYSVDERVDSDSKSEVEALTEQLSEEEEEEEEEEEEEEEEEEEEEEEEDEESGNQSDRSGSSGRRKAKKKWRKDSPWVKPSRKRRKREPPRAKEPRGVNGVGSSGPSEYMEVPLGSLELPSEGTLSPNHAGVSNDTSSLETERGFEELPLCSCRMEAPKIDRISERAGHKCMATESVDGELSGCNAAILKRETMRPSSRVALMVLCETHRARMVKHHCCPGCGYFCTAGTFLECHPDFRVAHRFHKACVSQLNGMVFCPHCGEDASEAQEVTIPRGDGVTPPAGTAAPAPPPLSQDVPGRADTSQPSARMRGHGEPRRPPCDPLADTIDSSGPSLTLPNGGCLSAVGLPLGPGREALEKALVIQESERRKKLRFHPRQLYLSVKQGELQKVILMLLDNLDPNFQSDQQSKRTPLHAAAQKGSVEICHVLLQAGANINAVDKQQRTPLMEAVVNNHLEVARYMVQRGGCVYSKEEDGSTCLHHAAKIGNLEMVSLLLSTGQVDVNAQDSGGWTPIIWAAEHKHIEVIRMLLTRGADVTLTDNEENICLHWASFTGSAAIAEVLLNARCDLHAVNYHGDTPLHIAARESYHDCVLLFLSRGANPELRNKEGDTAWDLTPERSDVWFALQLNRKLRLGVGNRAIRTEKIICRDVARGYENVPIPCVNGVDGEPCPEDYKYISENCETSTMNIDRNITHLQHCTCVDDCSSSNCLCGQLSIRCWYDKDGRLLQEFNKIEPPLIFECNQACSCWRNCKNRVVQSGIKVRLQLYRTAKMGWGVRALQTIPQGTFICEYVGELISDAEADVREDDSYLFDLDNKDGEVYCIDARYYGNISRFINHLCDPNIIPVRVFMLHQDLRFPRIAFFSSRDIRTGEELGFDYGDRFWDIKSKYFTCQCGSEKCKHSAEAIALEQSRLARLDPHPELLPELGSLPPVNT [EHMT2]
solubility in G1/S (log2) (HeLa Kyoto [1]): -0.563 | melting temperature (HeLa Kyoto [2]; cell cycle stage: G1/S): 50.1 °C | melting temperature (HeLa Kyoto [2]; cell cycle stage: mitosis): 49.9 °C | solubility change mitosis (log2) (HeLa Kyoto [3]): 0.189 | thermal stability score (HeLa Kyoto [4]; [5]): 1.11 | thermal stability score (HeLa Kyoto [4]; cell cycle stage: mitosis): 1.87

MAGVSFSGHRLELLAAYEEVIREESAADWALYTYEDGSDDLKLAASGEGGLQELSGHFENQKVMYGFCSVKDSQAALPKYVLINWVGEDVPDARKCACASHVAKVAEFFQGVDVIVNASSVEDIDAGAIGQRLSNGLARLSSPVLHRLRLREDENAEPVGTTYQKTDAAVEMKRINREQFWEQAKKEEELRKEEERKKALDERLRFEQERMEQERQEQEERERRYREREQQIEEHRRKQQTLEAEEAKRRLKEQSIFGDHRDEEEETHMKKSESEVEEAAAIIAQRPDNPREFFKQQERVASASAGSCDVPSPFNHRPGSHLDSHRRMAPTPIPTRSPSDSSTASTPVAEQIERALDEVTSSQPPPLPPPPPPAQETQEPSPILDSEETRAAAPQAWAGPMEEPPQAQAPPRGPGSPAEDLMFMESAEQAVLAAPVEPATADATEIHDAADTIETDTATADTTVANNVPPAATSLIDLWPGNGEGASTLQGEPRAPTPPSGTEVTLAEVPLLDEVAPEPLLPAGEGCATLLNFDELPEPPATFCDPEEVEGESLAAPQTPTLPSALEELEQEQEPEPHLLTNGETTQKEGTQASEGYFSQSQEEEFAQSEELCAKAPPPVFYNKPPEIDITCWDADPVPEEEEGFEGGD [DBN1]
solubility in G1/S (log2) (HeLa Kyoto [1]): -1.2 | melting temperature (HeLa Kyoto [2]; cell cycle stage: G1/S): 52.3 °C | melting temperature (HeLa Kyoto [2]; cell cycle stage: mitosis): 52.1 °C | solubility change mitosis (log2) (HeLa Kyoto [3]): 0.101 | thermal stability score (HeLa Kyoto [4]; [5]): -3.76 | thermal stability score (HeLa Kyoto [4]; cell cycle stage: mitosis): -0.742

MPAPIRLRELIRTIRTARTQAEEREMIQKECAAIRSSFREEDNTYRCRNVAKLLYMHMLGYPAHFGQLECLKLIASQKFTDKRIGYLGAMLLLDERQDVHLLMTNCIKNDLNHSTQFVQGLALCTLGCMGSSEMCRDLAGEVEKLLKTSNSYLRKKAALCAVHVIRKVPELMEMFLPATKNLLNEKNHGVLHTSVVLLTEMCERSPDMLAHFRKLVPQLVRILKNLIMSGYSPEHDVSGISDPFLQVRILRLLRILGRNDDDSSEAMNDILAQVATNTETSKNVGNAILYETVLTIMDIKSESGLRVLAINILGRFLLNNDKNIRYVALTSLLKTVQTDHNAVQRHRSTIVDCLKDLDVSIKRRAMELSFALVNGNNIRGMMKELLYFLDSCEPEFKADCASGIFLAAEKYAPSKRWHIDTIMRVLTTAGSYVRDDAVPNLIQLITNSVEMHAYTVQRLYKAILGDYSQQPLVQVAAWCIGEYGDLLVSGQCEEEEPIQVTEDEVLDILESVLISNMSTSVTRGYALTAIMKLSTRFTCTVNRIKKVVSIYGSSIDVELQQRAVEYNALFKKYDHMRSALLERMPVMEKVTTNGPTEIVQTNGETEPAPLETKPPPSGPQPTSQANDLLDLLGGNDITPVIPTAPTSKPSSAGGELLDLLGDINLTGAPAAAPAPASVPQISQPPFLLDGLSSQPLFNDIAAGIPSITAYSKNGLKIEFTFERSNTNPSVTVITIQASNSTELDMTDFVFQAAVPKTFQLQLLSPSSSIVPAFNTGTITQVIKVLNPQKQQLRMRIKLTYNHKGSAMQDLAEVNNFPPQSWQ [AP1G1]
solubility in G1/S (log2) (HeLa Kyoto [1]): -0.225 | melting temperature (HeLa Kyoto [2]; cell cycle stage: G1/S): 50.3 °C | melting temperature (HeLa Kyoto [2]; cell cycle stage: mitosis): 50.1 °C | solubility change mitosis (log2) (HeLa Kyoto [3]): -0.192 | thermal stability score (HeLa Kyoto [4]; [5]): -1.48 | thermal stability score (HeLa Kyoto [4]; cell cycle stage: mitosis): 0.274

MLSVASRSGPFAPVLSATSRGVAGALRPLVQATVPATPEQPVLDLKRPFLSRESLSGQAVRRPLVASVGLNVPASVCYSHTDIKVPDFSEYRRLEVLDSTKSSRESSEARKGFSYLVTGVTTVGVAYAAKNAVTQFVSSMSASADVLALAKIEIKLSDIPEGKNMAFKWRGKPLFVRHRTQKEIEQEAAVELSQLRDPQHDLDRVKKPEWVILIGVCTHLGCVPIANAGDFGGYYCPCHGSHYDASGRIRLGPAPLNLEVPTYEFTSDDMVIVG [UQCRFS1]
solubility in G1/S (log2) (HeLa Kyoto [1]): 0.119 | melting temperature (HeLa Kyoto [2]; cell cycle stage: G1/S): 55.6 °C | melting temperature (HeLa Kyoto [2]; cell cycle stage: mitosis): 55.5 °C | solubility change mitosis (log2) (HeLa Kyoto [3]): -0.113 | thermal stability score (HeLa Kyoto [4]; [5]): -1.93 | thermal stability score (HeLa Kyoto [4]; cell cycle stage: mitosis): -2.28
